The values below come from publication PMC2185538, “Purification of the full-length Xenopus interphotoreceptor retinoid binding protein and growth of diffraction-quality crystals” (Molecular Vision, 2007).

The series concerns the molecule itself. The experiment in a line: SEC; Sephacryl S-300HR 2.6 x 100 cm, 25 mM Tris-HCl pH 7.5 at 4 °C, 50 mM NaCl, 1 mM DTT; dimer between elution volumes 212 and 250 ml.

B1: recombinant full-length four-module Xenopus interphotoreceptor retinoid-binding protein (natural protein)
chain: not shown
notes: begins FQPSL; also called xIRBP; Xenopus IRBP; source: E. coli Top10, thioredoxin fusion cleaved with enterokinase, purified (HisTrap twice, Sephacryl S-300HR); not shown: thioredoxin with His-patch, N-terminal, cleaved
In the case of B1, the “stoichiometry N” value was 2.

The stoichiometry N is the number of molecules, sites or subunits per partner or assembly.
